Laboratory results reported in US20180195056.

## wheat (Triticum) Atg4 ortholog (trAtg4)
His14-xlGATE16-MBP
  protease concentration for significant cleavage, against its cognate substrate trAtg8 and the yeast substrate: the Xenopus xlGATE16 substrate required drastically (>100-fold) higher trAtg4 concentrations for significant cleavage
His14-xlLC3B-MBP
  substrate cleavage in protease titration (100 µM substrate, 1 h, 25° C.): xlLC3B cleavage by trAtg4 was only barely detectable
